Experimental data published in the DeepSol protein solubility set.

Experiment: soluble on expression in E. coli; label from the status in PepcDB or PDB records

Soluble on expression in E. coli, not soluble:
MGSDKIHHHHHHMSKAMISRENYLQQLIQFKDTDFIKVISGVRRSGKSVLLMQYRDYLQQQGIASENILYLNFESFEYQWVKDAQDFQQLIQEKMPSSQEKIYFLIDEIQFVEGWQKIVNALRVSFNTDIVITGSNANLLSGELATLLSGRYVEIKIYPLSFKEFLHAKNVDSQSRLVDKLYSEYEKYGGFPSVVMADEPLKETILSGIFDSIVLNDIAHRAGVKDTHILKSVILFLADNVGQLVNPSKISNTLTSERVPTSNHTISKYLDLLENAFLFYKAKQYDIRGKGYLKTNAKYFIVDNGLRRHAIGKKGANYANRLENIVFIELLRRGYSVDVGKLDSKEIDFIARKADEILYVQVAFEIPENTHETDNLLHIKDNYKKILITGKYYEQTEIDGIEVIYVVDWLLQ
MGSDKIHHHHHHMSKAYSSNLTQDQWELLEPLIPVGKTGGRPRVVEMWQVINAIFYVLTQGCTWRNLPGDLPNWQTVYTYFRNWRKDGTWVSIHDQLRDWERVNNERAVSPTEAIIDSQSVKTAAMVTQQVGYDAGKKVKGRKRFLTVDTLGLVLPVLVSAASVDERSGGKLLLQKVKQMGDKVSRLNLIWVDGGYDGNPFMQWVMDFYRWVVQVVLRPRERKGFVLLPKRWVVERTFGWLTGCRRLNKDYELLPETAENFIYLAMIRIMVRRLA
MGSDKIHHHHHHMSKHALKLIPSSTEHADVPNDCKNCGAYHLCMSLWLKTADSSLLERVVKKKQVFKRGEVLYRMGQPLEYIYVIRGGSVKTCVSTEDGQVQVMGFHAAGELLGLNAISNREHKCEARAMGVTSVCEVSVERFEELAKKDPAIQYEILKIMSAEIHHGQELLLLLGKHNAEERIAIFLLNLSRQFEQRHCSATEFTLCMSRSDIGNYLGIAEETVCRIFARFQDDGLISSEYRNVKLKDIKRLEQIANQRPQRSLRQTNVASLYF
MGSDKIHHHHHHMSKKQFLDQLWARMAQKGDFPTLQYCIDNVFKTLNSDLSVGEMASTVLSDFSLSQKVIRLANSAMYRSFGGEVTTVSRAIMVLGVDTITHLTLGVQVLDFFQGVAPNRPQAARALKQAIMAGEITRALNDARGILGGEEGVVCTLMHHVSRLLVIFYFPDEWDRIMALSADGAMSENDACREVIDISLDDLAKAAAFRWRLPALIADGMLGRELHEETVLETHADWLGAVASLSSDAAASILAEQPEEVVLEPLLTHAQKLGLEPSHVNVAIQQAGTLKASMARSEAPDTGVGSLPDDGGKPADTLTRLQQALAEIRQEGAGMTVSQLAPLVLESAMRALNFSHCFLMLLHPTNKRFGARLGFGEGMRDKLEKLSFEEGFVPDVFHFAMIAPKPLLIEDLRDKAVSHRVPRWYRDAMPDTRSVLLIPVKVRNRCVAMICGDWGATRIAGGLTDGELIAAGDLAGEIATAVLRSAPQR
MGSDKIHHHHHHMSKLAAFLGRAIPTHQQKQSSHLGDRTLYVGASDIAGCPRKAALGKQNPTGHDIKTLLRFSRGHAAQAMYADFFRTGGALFEEEVEVRHPAIPEIRCHIDFLFYANRQTKRLHIVEMKSTDGIPDEPYASWVDQLHVQMGLLQLTLDPAVEIGGSILVVDLNAGSYHEFNSYTPNRLVFDQLVEKGKHILAAARGECAPRTEPGILCGYCPFRTGCPSHAVALDLPREILDTGRKYLELNEQKKALENRLDVLKNDILTFADGTFKGASDGILINVTSVADSTTIDSYKLKRNYPDIYDQVTKPKSGYVKLEIKPFTPLAAQAA
MGSDKIHHHHHHMSLITDLPAIFDQFSEARQKGFLTVMDLKEQNVPLVGTYCTFMPQEIAMAAGAVVVSLCSTSDETIEEAEKDLPRNLCPLIKSSYGFGKTDKCPYFYFSDLVVGETTCDGKKKMYEYMAEFKAVHVMQLPNSASDAASRALWKTEILRLQQVIEARFGTPISEAALREAIVLKNRERRALAHFYRLGQLNPPALSGGDILKVVYGATFRFDKTALIDELHAMAERIHQEWQQGKRLEPRPRILITGCPIGGAAEKVVRAIEENGGWVVGYENCTGAKATERCVAEEGDVYDALTDKYLAIGCSCISPNDQRLQLLSQMVEEYQADGVIDVILQACHTYAVESLAIKRHLRQQHDLPYMAIETDYSTADLGQLSTRVAAFIEML
MGSDKIHHHHHHMSLRKNLALGSSTVLLTAVLSGCVSLDERSTDTSTENVTTVTATLTSTAAAEPTTRTTVQSATEASTTAPVQCNLDPRTSDFGPYLAQSRTPVGELAGSADSVVQVPDWFYHFQMGDNGYDSCSKLSYVVLNGSNGDAERSTGTGAAIADVVVLFIDGHMVARPAPFEMKTVESVTRVSDSEIQVVYGHAGRSTAEGVTDYFTFNFFVDNGVLSGRGDLPEHIDTHMRLYLL
MGSDKIHHHHHHMSNIYDAVVVGSGPNGLAAAITLQRKGFAVLVLEAKDTIGGGLRTKELTLPGFKHDVCSAIHPMAVASPFFADIPLDKFGLRFTHAPIAAAHPFDHGGAAILSRSLKDTIALLGKDADNYKRLIEPVIESWPDIAADAMGPLRFPKHPLKMAAFGLNAIRSADCISKRFETEEAKGLWAGMAAHSIQPLTNWASAAIGLVLSAVGHLHGWPIPIGGSQAIADALGSYFISLGGTIQTNVEVTSLNQLPAARAVLFDVTPKQLLKITGDEFSGLYKKQLTNYRYGMGVFKVDWALSEPVPFTSDHCRQAGTVHLGNTFNEIALSEQETSSGKHPEKPFVLFAQQSKFDITRAPQGKHTAWAYCHVPNGSATDMTAAIENQLERFAPGFKDTILAKNTMNTVEIQAYNPNYIGGDINGGIIDIRQLYTRPAVKISPYRTPKKGIYICSSSTPPGGGVHGMCGFHAAQAVIQDLKKQYK
MGSDKIHHHHHHMSNQYHNFNSQIESHILFYGHQKCKPDEYFDGTNLRKNDILYYVLDGKGTFNSSGHHVAKLAKGDLFLVPRSRTCYFEADHDNPWEYFWIGLSGAGTNEMIKASNLPNKNFLRQIQKTEFFETLKELYSTLNEDSSLLNNVKIASLTYQLFYHLIDEFPNHPSIRKTPKIDQYQIAIDYLNKNYTDPTCNIVELCNRLGVSRSFLYSLFRKNTKISPQKYLMQLRMEAAKKELLNTTHNLKEIARKVGYGDEFTFSKAFKRYSGVSPNVFRGK
MGSDKIHHHHHHMSPLAYSVANVNLESSHPTGALSVNLLSGRDVRRWDDFVSCCREATFFHRAGWQTVIERAFGHKTWFLYAECEGEIQGVLPLAEINSRLFGHSLSSLPFCVYGGIAADSQTVRDALDRSAQKLAQELQVDYLEYRNLKPHHADWHGKDLYVTFRKEIASEIEQNMSAIPRKQRAMVRKGIKAGLESVVDQDIERFFSAYSASVHRLGTPVFSRKYFRLLKEVFAEDCELMIIVKDNRTISAVMSFYFRDEVLPYYGGGTGEAREVAGNDFMYWELMRRACEKGCKVFDFGRSKRGSGSFDFKKNWGFEPQPLHYEYQLHQAKEVPDHNPLNPRYQIFIKAWQKLPLGLANLVGPHIVRNLG
MGSDKIHHHHHHMSQDDLLSQEEIDALLKGVSGDEDNAQDERASREGKVRPFDPAKQHRIIRERLHALDIINERFARQFRVALFNLMRRSADITVESVRYQSYSEFSRNLPVPTNLNLITMKPLRGSALVVFPPSLVFMVVDNLFGGDGRFLTKSEGREFTRTEQRIIHRMLKMALEGYSESWKSVYPLDIEYTRSELQVKFANITNSPNEIVVNSTFHVEVGNLSSEFNICIPYSMIEPIRDILASPLHDTHPDEEQQWEARMAHEIRHSSVELTADFVDIPLRLRDVTQLSVGDIIPIELPEAVNVSVDGIPVMTCDYGSQKSQRALRVRHLIEHGSSQVAAKDPKDD
MGSDKIHHHHHHMSQFIDILRQHLADFQWRYAHQITPEIQDAIHAMLSCRCNTARVSCCEQQREFPLSCGHRSCPQCQHGTTCDWLSKQQAKLLPVNYFMVTFTLPFELRAIAKSQPDLLYHALFTVAASVLKDFAVRSPKLSGDIGFTGVLHTYSRRRDYHPHLHCIIPAGSYHPGKRQWRKCQTHYLFNAFNLAKVWRARLLTYLSDRLQLKLPH
MGSDKIHHHHHHMSQHVLLNSVDHKDIKIITERSAKYGDNVWFSVTFPAEFRSVQAHYPIFFQKDQTTGQFFAVALYGFQNNENLFLNNGTWQASYIPLTQRRQPFLIGQQSVREDGVERKQRVIHIDIASPRVSTTEGEALFHPYGGNTQYLDDIGDMLEGIHHGLIDSKHFIDLLIEHQLLESFTLDVKLDNGQQHQMMGFYTINEDTLASLSAEVLAQLHIKDYLKAIYMALASQARVRDLLNLKNAQG
MGSDKIHHHHHHMSQIIAIHSFRGGTGKSNIIANIGATMALKGQRVGIIDTDIQSPGIHIIFGLKEEKIRLTLNDYLWKRCDIQDTAYDVTDTLIAESGNTDKIRGSLYLIPSSIKAAEIARVLREGYDVVRLHDGFQEIIRSLKLDYLLIDTHPGLNEETLISIGIANTLLIILRPDNQDFQGTAVTVDVARKLKAARILLVLNKALASFNFTDLQQQLEQIYDVPVVGILPLAEDMVQLASKGLFCLRYPQHPITQTIQEITDQLAGLVVSHQ
MGSDKIHHHHHHMSQQEFDVLVIGAGISGAALFYELARYTNIKNIALIEKYNTAATLNSKGTSNSQTIHCGDIETNYTLEKARKVKRTADMIVKYGLMQNAQNNFMFSHQKMALAVGDIECDYMKKRYEEFKELYPYIKFFDKAKIKQIEPKVVLGEDCNQDRPENICAMGVESGEVFTTVDFGKMSINLIEQAQKQNKNTFVAFNQEIIHIEKKDDIFILKTSNHQEYHAKSVVVNAGAHSLYLAHKMNLGMDKSCWPVAGSFYLTKQKLLNGKVYMVQNPKLPFAALHGDPDLLADMNTRFGPTALVIPKLERYHGLKSVPEFFEALKLDKTVLKVTFNMFKDATIRNYIFYNYLFELPFVDKSLFVKDAKKIVPSLKASDIYYAKGFGGVRPQVIDKTKGELMLGEASITETPGIIFNMTPSPGATSCLGNAERDAKLVCNYLGMEFNEDKFSSELL
MGSDKIHHHHHHMSQSMVGKHAMWPKENDVIFSISGRAQAAEKAFGMDNVINATIGALMDDSGKLITMKTVYEEYKALDNCEIGAYAALEGQPDYLEAVKKVFFRDYLPEGHIRVLASPGGSGAIKLAVWNYTNEGDEVLTSDWFWSPYVSIAEEANRKVVNYQLFDENRRFNFESFKEKFVNIAEKQGRVFTIINTPAHNPTGYSVADDEWDKILDLSKEVAKDKDKKIIFFVDSAYIDFAGDDDVCRKFFKKFSNLPENVLVLVGFSMSKGFTAYGMRMGAIICISSSEDVAEEFHYSCVHSCRANWSNCNRSAMAVLSNIVNDPKKFKEYEDEKEIYKNMLTRRADVFVKEAERVGLEILPYIAGFFVSIPCDNPKEVCEELTKHNLFAVPLKMGLRFAVCAVSEDKCKKAPSIIKEALESLEVKINN
MGSDKIHHHHHHMSQTTLSTIPRLIGQVLSIYDVAPEAIFSAANIDITSDAQTRVPMENMATLWKLAVEATHNNELGLVAASLFQPVYLKSIGLAWLASENLEEGLKRYIASSQLINTEMQIELTERDGIDGEETLIQYQRRLTSSNTIKVHPCAIELGIGFFLKMFRLAAGKNIPATGVYFTFAIEENNKVYEEYFQCPVYGNQAVNGIAFSKALLTETLPTHDVELVEMNEVVINKHLDSMDNGETSSKVIKMINDLLPLGCPTEEVIAYKLHMSKRTLQRKLSVEKQSFLALLTSVRLMLAKEKLANKRVSVTEITYQLGYSSPSTFARAFKKHTQLSPLEYRNQVSSYSSCS
